The values that follow come from PMC4800418, “A two-component system regulates gene expression of the type IX secretion component proteins via an ECF sigma factor” (Scientific Reports, 2016).

Broadly, the koff is a measure of how fast the partners let go of each other. The term Kd denotes the equilibrium constant for the complex coming apart.

For data set [1], the target named is T1, rSigP (ECF sigma factor) (Porphyromonas gingivalis ATCC 33277) (UniProt B2RHE8).
T1 sequence: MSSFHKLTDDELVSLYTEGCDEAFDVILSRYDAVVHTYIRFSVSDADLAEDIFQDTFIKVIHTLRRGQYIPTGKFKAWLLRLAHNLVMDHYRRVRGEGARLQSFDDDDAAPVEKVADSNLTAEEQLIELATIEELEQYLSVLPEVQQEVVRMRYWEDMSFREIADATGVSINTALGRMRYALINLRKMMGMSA
Description: EMSA. (In general: Mobility shift assays separate free from complexed probe on a gel.)

In data set [2] the target is T2, recombinant PorX (rPorX) (Porphyromonas gingivalis ATCC 33277, UniProt B2RJJ3 1-518).
T2 chain: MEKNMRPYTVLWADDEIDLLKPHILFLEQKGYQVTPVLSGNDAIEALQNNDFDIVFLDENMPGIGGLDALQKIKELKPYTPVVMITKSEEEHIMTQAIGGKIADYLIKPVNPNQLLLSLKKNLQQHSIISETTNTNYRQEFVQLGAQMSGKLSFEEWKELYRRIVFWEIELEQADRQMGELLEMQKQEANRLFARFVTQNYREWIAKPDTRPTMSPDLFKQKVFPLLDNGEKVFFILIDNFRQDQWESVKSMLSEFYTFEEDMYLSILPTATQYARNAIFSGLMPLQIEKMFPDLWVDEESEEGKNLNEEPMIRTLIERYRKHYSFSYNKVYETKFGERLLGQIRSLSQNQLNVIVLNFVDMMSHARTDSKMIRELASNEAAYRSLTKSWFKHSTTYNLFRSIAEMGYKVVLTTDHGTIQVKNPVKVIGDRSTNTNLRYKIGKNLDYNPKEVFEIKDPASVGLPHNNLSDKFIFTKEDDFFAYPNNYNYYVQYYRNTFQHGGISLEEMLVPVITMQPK
In words: SPR. For orientation: Surface plasmon resonance follows binding to a sensor surface in real time, without labels.

Data set [3] concerns the target T3, recombinant PorX (rPorX) (Porphyromonas gingivalis ATCC 33277, UniProt B2RJJ3 1-518).
T3 construct: also called PGN_1019; source: E. coli BL21(DE3), purified (Ni-NTA agarose)
T3 sequence: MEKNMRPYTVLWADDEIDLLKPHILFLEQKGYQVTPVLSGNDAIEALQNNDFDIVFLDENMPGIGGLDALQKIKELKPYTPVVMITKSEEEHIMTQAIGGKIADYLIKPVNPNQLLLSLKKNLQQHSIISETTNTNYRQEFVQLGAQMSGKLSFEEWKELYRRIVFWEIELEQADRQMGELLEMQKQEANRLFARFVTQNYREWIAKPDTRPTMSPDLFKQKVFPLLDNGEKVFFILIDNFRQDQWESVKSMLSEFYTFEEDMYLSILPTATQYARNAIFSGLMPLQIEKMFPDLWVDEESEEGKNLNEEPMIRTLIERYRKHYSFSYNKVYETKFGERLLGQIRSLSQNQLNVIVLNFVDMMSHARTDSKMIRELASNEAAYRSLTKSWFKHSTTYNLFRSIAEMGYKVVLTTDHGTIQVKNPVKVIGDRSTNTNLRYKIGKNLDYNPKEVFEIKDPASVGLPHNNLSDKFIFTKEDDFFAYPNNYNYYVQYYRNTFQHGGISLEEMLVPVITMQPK
In words: SPR. The note with it: both partners purified.

For “ATAATTATTGTTGTGAGGTAGGTTATGCAAATCTACGAACGAGATGTTCTAAATACCGATTCGCGCAAAAATACAATATCTTTGCTGCATAAGGCGTTGA (double strand) [porT promoter probe]”, in data set [1], the binding entry is “binds”.
Turning to “GGCTATACGCAAAGCAGTCAAGTCCATTCTCTCCGAGGATTCGTCCTTAGCTGTCGAAGATATTATCAAGCGAGCATTACGAATGTTATAACCTTTTCTC (double strand) [sov 5'-adjacent region probe]”, in data set [1], the binding result is given as “no binding”.
In the case of “ACATTATTTATATATCTGCTTCGCTGCTCTCCCCGAATCCTGCGCTAAGGCAGTTTTCAGAGGAAACGAATGCTTTTATACTTTGCATCTCTATTCTTCGTATTGCTCAATGGGAAAGAA (double strand) [porK 5'-adjacent region probe]”, the binding result in data set [1] is “no binding”.
Same read-out and setting: the value for “ATTTCGTTCGTTTTGTTTTGTATTCTTATCGGGGTCTATGAATATTCAATATCGTAAACGGCAGAACTGCTTCGGCTATTGTGCTACCACGATCATTTTCTTGGCCATGGAGGCCGTCTG (double strand) [porV promoter probe]” was “binds”.
On the same count and under the same terms, the value for “TTAGTGACTGAAATGCGATTGCCCTGTTACAAACGGACTTGATACAACATTTTCCCTACTTTTGCGTTAGTTTCCTATAGTAATAAACAACACTATGGTG (double strand) [ruvA promoter probe]” was “binds”.
On the same count and under the same terms, the same measure for “GCAAAGAGGATTTTTTCTTCAACGAAGAAGAGTACTGATAATGTAATCTCCTTAAGCGAATATGCCCCGGATGTGCAATAATAGCACTCGGGGCTTCGTTTTACCACCGTGGCATCAGTC (double strand) [porP promoter probe]”: “binds”.

B1: recombinant SigP (rSigP) (natural protein)
chain: MSSFHKLTDDELVSLYTEGCDEAFDVILSRYDAVVHTYIRFSVSDADLAEDIFQDTFIKVIHTLRRGQYIPTGKFKAWLLRLAHNLVMDHYRRVRGEGARLQSFDDDDAAPVEKVADSNLTAEEQLIELATIEELEQYLSVLPEVQQEVVRMRYWEDMSFREIADATGVSINTALGRMRYALINLRKMMGMSA
notes: source: E. coli BL21(DE3), purified (Ni-NTA agarose)
As to B1, the koff with recombinant PorX (rPorX) [2] amounted to 0.000529 s⁻¹. Besides, the Kd with recombinant PorX (rPorX) [3] worked out at 78.3 nM.
